One may read the Kd as the concentration at which binding is half-saturated. The koff is the rate constant with which the complex falls apart. A low value points to a long-lived complex. As usually defined, the kon is a measure of how fast the partners come together. Read a low kon as slow association. By EC50 (read off the curve) is commonly meant the concentration giving half of the maximal effect.

Assay [1] addresses T1, D3-[G4S]5-D3 homodimer.
T1 construct: also called D3-D3; D3D3; not shown: C-terminal His6 or His6Myc tag (His6Myc in flow cytometry)
Description: competition ELISA: D3-D3 pre-incubated with the peptide (25% DMSO), residual binding to coated huROR1-Fc.

Assay [2] concerns the target T2, D3 VNAR.
T2 construct: shark VNAR domain; also called D3 WT; D3 monomer; not shown: C-terminal His6 or His6Myc tag (His6Myc in flow cytometry)
The experiment in a line: competition ELISA: D3 pre-incubated with the peptide (25% DMSO), residual binding to coated huROR1-Fc. Background: An ELISA detects its analyte on a solid surface through an enzyme-linked reagent.

Assay [3] deals with T3, B1 VNAR (C-terminal His6 or His6Myc tag, not said which).
T3 construct: shark VNAR domain; also called VNAR B1; B1 monomer
T3 sequence (chain, as listed by the source): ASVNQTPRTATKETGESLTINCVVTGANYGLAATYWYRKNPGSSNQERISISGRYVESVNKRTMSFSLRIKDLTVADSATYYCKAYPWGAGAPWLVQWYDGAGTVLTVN
Description: competition ELISA: B1 pre-incubated with the peptide, residual binding to coated huROR1-Fc.

The target of assay [4] is T1, D3-[G4S]5-D3 homodimer. The experiment in a line: competition ELISA: VNAR pre-incubated with peptide 5, residual binding to coated huROR1-Fc [continued].
T1 sequence (chain, as listed by the source): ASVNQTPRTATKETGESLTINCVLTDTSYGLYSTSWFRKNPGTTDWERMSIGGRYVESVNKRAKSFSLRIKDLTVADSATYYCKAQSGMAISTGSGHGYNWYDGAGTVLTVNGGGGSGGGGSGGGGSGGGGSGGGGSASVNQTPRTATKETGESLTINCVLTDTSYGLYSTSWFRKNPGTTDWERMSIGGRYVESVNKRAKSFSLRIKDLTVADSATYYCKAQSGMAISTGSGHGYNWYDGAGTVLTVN
Assay [5] has as its target T2, D3 VNAR. Described as above.
For assay [6], the target named is T3, B1 VNAR (C-terminal His6 or His6Myc …). The assay is described as above.
Assay [7] addresses T4, mouse ROR1 extracellular domain-Fc fusion (mouse, UniProt Q9Z139 30-406).
T4 construct: extracellular domain; also called mROR1; mouse ROR1-Fc
Description: SPR, mROR1 on chip.

Assay [8] has as its target T5, rat ROR1 extracellular domain-Fc fusion (rat, UniProt D3ZZ97 30-406).
T5 construct: extracellular domain; also called rROR1
The experiment in a line: SPR, rROR1 on chip. On the technique in general: SPR reads the build-up and loss of mass on a sensor chip optically.

In assay [9] the target is T6, human ROR1 extracellular domain-Fc fusion (human, UniProt Q01973 30-406).
T6 construct: extracellular domain; also called hROR1; ROR1-hFc
Description: SPR, ROR1-hFc on chip; E. coli.

Assay [10] deals with T5, rat ROR1 extracellular domain-Fc fusion. Description: ELISA on coated rat ROR1-Fc.
Assay [11] deals with T7, human ROR2 extracellular domain-Fc fusion (human, UniProt Q01974 34-403).
T7 construct: extracellular domain; also called hROR2; ROR2-hFc
Description: ELISA on coated human ROR2-Fc.

Assay [12] has as its target T6, human ROR1 extracellular domain-Fc …. Description: SPR.
For assay [13], the target named is T7, human ROR2 extracellular domain-Fc …. Description: SPR.
The target is the same in assay [14]. The experiment in a line: SPR. The source holds these as a separate data set.
For a further assay, the target named is T8, rat serum albumin (rat, UniProt P02770 25-608).
T8 construct: also called RSA
T8 sequence (P02770 25-608 limits assumed): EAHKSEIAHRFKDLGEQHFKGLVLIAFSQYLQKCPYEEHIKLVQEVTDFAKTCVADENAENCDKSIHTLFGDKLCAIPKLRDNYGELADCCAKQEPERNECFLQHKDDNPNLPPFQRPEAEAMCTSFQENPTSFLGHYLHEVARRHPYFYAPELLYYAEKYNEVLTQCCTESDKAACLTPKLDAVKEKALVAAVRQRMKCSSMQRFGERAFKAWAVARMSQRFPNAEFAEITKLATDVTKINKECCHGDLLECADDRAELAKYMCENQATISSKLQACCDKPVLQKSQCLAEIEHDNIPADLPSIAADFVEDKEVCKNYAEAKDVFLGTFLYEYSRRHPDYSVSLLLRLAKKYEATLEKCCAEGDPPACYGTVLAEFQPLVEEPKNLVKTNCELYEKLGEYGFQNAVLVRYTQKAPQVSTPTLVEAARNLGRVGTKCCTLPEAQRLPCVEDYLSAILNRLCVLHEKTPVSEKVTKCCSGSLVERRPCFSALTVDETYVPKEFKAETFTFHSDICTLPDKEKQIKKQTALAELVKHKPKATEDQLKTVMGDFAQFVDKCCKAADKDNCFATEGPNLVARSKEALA
The experiment in a line: SPR, albumin on chip.

For a further assay, the target named is T9, mouse serum albumin (mouse, UniProt P07724 25-608).
T9 construct: also called MSA
T9 sequence (P07724 25-608 limits assumed): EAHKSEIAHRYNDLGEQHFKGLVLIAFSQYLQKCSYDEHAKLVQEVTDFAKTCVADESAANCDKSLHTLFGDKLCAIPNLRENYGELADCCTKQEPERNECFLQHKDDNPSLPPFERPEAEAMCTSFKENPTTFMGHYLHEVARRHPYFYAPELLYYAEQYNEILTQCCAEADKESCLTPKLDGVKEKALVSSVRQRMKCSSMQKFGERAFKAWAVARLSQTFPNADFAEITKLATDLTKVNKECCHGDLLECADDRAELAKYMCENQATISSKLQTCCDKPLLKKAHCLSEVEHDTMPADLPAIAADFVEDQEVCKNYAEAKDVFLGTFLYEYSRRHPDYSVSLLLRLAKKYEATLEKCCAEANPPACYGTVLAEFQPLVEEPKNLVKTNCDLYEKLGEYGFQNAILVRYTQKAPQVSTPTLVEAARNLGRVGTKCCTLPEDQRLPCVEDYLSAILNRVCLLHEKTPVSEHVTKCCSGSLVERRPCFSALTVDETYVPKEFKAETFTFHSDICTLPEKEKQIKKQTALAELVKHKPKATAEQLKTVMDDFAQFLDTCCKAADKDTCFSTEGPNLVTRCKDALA
The experiment in a line: SPR, albumin on chip.

Assay [15] has as its target T10, cynomolgus serum albumin (cynomolgus).
T10 construct: also called CSA; Cyano
Description: SPR, CSA on chip, pH 7.4.

The target in assay [16] is T10, cynomolgus serum albumin. Description: SPR, CSA on chip, pH 5.5.

T4 sequence (Q9Z139 30-406): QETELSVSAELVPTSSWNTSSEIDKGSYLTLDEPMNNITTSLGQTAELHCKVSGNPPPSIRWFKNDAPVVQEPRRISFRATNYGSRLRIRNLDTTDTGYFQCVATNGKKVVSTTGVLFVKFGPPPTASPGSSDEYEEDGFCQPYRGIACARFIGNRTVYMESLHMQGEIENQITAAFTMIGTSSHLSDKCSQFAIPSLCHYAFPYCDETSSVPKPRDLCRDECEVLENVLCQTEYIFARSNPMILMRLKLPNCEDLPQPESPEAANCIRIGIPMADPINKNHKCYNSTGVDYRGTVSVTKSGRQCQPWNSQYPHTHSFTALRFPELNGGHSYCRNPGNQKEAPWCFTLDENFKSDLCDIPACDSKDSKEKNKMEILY
T10 sequence (A2V9Z4 25-608): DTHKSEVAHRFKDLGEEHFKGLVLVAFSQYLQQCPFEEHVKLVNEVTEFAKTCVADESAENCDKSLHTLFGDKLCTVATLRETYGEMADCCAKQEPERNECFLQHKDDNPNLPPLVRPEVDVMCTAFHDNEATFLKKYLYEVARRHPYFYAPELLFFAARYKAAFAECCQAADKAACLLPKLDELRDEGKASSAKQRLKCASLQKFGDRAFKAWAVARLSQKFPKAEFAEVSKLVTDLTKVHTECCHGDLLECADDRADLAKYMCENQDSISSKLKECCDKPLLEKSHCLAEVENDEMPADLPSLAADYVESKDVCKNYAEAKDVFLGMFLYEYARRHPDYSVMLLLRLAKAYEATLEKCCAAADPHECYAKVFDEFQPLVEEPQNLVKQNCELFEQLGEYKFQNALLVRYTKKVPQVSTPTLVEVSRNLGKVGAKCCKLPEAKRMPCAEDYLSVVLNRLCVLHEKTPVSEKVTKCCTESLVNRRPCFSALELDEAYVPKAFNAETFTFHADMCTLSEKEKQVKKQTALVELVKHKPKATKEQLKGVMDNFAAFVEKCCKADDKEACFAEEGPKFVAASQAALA
T2 sequence (chain, as listed by the source): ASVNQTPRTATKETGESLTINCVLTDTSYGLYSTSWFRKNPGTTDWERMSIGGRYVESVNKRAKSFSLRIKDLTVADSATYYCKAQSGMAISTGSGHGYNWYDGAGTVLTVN

For QCVATNGKEVVSSTGVLFVKFGPPPTASPGYSDEYE (synthetic linear peptide) [ROR1 ECD Peptide 4], the binding result with D3-[G4S]5-D3 homodimer [1] is “no binding”; with D3 VNAR [2] it was “no binding”; in [3], “no binding (tested: 10 uM)”.
With RSTIYGSRLRIRNLDTTDTGYFQ (also called ROR1 ECD Peptide 5) [peptide 5], the binding result (with D3-[G4S]5-D3 homodimer [4]; in the assay with D3 VNAR [5]; in [6]) was “no binding (tested: 1000 nM)” in each case.

B1: P3A1 VNAR (C-terminal His6 or His6Myc tag, not said which) (VNAR, not shown: small tags and cut ends)
VNAR: TRVDQTPRTATKETGESLTINCVLTDTSYGLYSTSWFRKNPGTTDWERMSIGGRYVESVNKGAKSFSLRIKDLTVADSATYYCKAREARHPWLRQWYDGAGTVLTVN
notes: shark VNAR domain; also called P3A1 monomer
In the case of B1, the Kd worked out at 14.3 nM in assay [7], 17.7 nM in [8] and 19.1 nM in assay [9]. Besides, the figures for the off-rate constant (koff) in assay [7], in assay [8] and in [9] were 0.0408 s⁻¹, 0.045 s⁻¹ and 0.0442 s⁻¹, respectively. The on-rate (kon) in assay [7] worked out at 2.95e+06 M⁻¹ s⁻¹; in assay [8], 2.86e+06 M⁻¹ s⁻¹; in [9], 2.47e+06 M⁻¹ s⁻¹. The concentration for a half-maximal effect (EC50 (read off the curve)) in assay [10] is about 0.3 µg/mL. Moreover, the binding result in [11] is given as “no binding (tested: 10 ug/ml)”.

B2: P3A1 VNAR with 6xHis tag (VNAR, not shown: small tags and cut ends)
VNAR: TRVDQTPRTATKETGESLTINCVLTDTSYGLYSTSWFRKNPGTTDWERMSIGGRYVESVNKGAKSFSLRIKDLTVADSATYYCKAREARHPWLRQWYDGAGTVLTVN
notes: shark VNAR domain; also called P3A1 6xHis
In assay [12], B2 returned a Kd of 7.8 nM, a koff of 0.0206 s⁻¹ and an on-rate (kon) of 2.92e+06 M⁻¹ s⁻¹. For the same molecule, in assay [13], the binding result is listed as “no binding”.

B3: 2V control VNAR (VNAR, not shown: small tags and cut ends)
VNAR: TRVDQTPRTATKETGESLTINCVLTDTSYGLYSTSWFRKNPGTTDWERMSIGGRYVESVNKGAKSFSLRIKDLTVADSATYYCKAQSLAISTRSYWYDGAGTVLTVN
notes: control VNAR from a naive library, no known target; also called 2V monomer
As to B3, the binding result (in assay [7]; in [14]; in [8]; in the assay with rat serum albumin; in the assay with mouse serum albumin) was “no binding” throughout.
On to CQPWNSQYPHTHTFTALRFP (synthetic linear peptide) [ROR1 ECD Peptide 3], for which the binding result is given as “no binding” with D3-[G4S]5-D3 homodimer [1], “no binding” in the assay with D3 VNAR [2] and “no binding (tested: 10 uM)” in assay [3].

B4: P3A1 dimer without tag (VNAR)
chain: TRVDQTPRTATKETGESLTINCVLTDTSYGLYSTSWFRKNPGTTDWERMSIGGRYVESVNKGAKSFSLRIKDLTVADSATYYCKAREARHPWLRQWYDGAGTVLTVNGGGGSGGGGSGGGGSGGGGSGGGGSTRVDQTPRTATKETGESLTINCVLTDTSYGLYSTSWFRKNPGTTDWERMSIGGRYVESVNKGAKSFSLRIKDLTVADSATYYCKAREARHPWLRQWYDGAGTVLTVN
notes: also called P3A1 dimer No tag
For B4, in assay [12], the Kd worked out at 0.36 nM, the koff was found to be 0.000598 s⁻¹ and the kon turned out to be 1.67e+06 M⁻¹ s⁻¹. Besides, in assay [13], the binding result is reported as “no binding”.

B5: P3A1 VNAR with His6Myc tag (VNAR)
VNAR: TRVDQTPRTATKETGESLTINCVLTDTSYGLYSTSWFRKNPGTTDWERMSIGGRYVESVNKGAKSFSLRIKDLTVADSATYYCKAREARHPWLRQWYDGAGTVLTVNQ
notes: shark VNAR domain; also called P3A1 6xHis myc
In assay [12], B5 had a dissociation constant Kd of 25.6 nM, an off-rate constant (koff) of 0.025 s⁻¹ and a kon of 980000 M⁻¹ s⁻¹. Further, the binding result in assay [13] is listed as “no binding”.

B6: ROR1 ECD Peptide 2 (peptide)
peptide: RSTIYGSRLRINLDTTDTGYFQ
notes: synthetic linear peptide; insoluble in PBS, repeated in 25% DMSO
With B6, the binding result in the assay with D3-[G4S]5-D3 homodimer [1] is on record as “no binding”; with D3 VNAR [2] it was “no binding”; in [3], “no binding (tested: 10 uM)”.

B7: BA11 humanised VNAR (VNAR)
VNAR: TRVDQSPSSLSASVGDRVTITCVLTDTSYPLYSTYWYRKNPGSSNKEQISISGRYSESVNKGTKSFTLTISSLQPEDSATYYCRAMSTNIWTGDGAGTKVEIK
For the molecule B7, the dissociation constant Kd in the assay with cynomolgus serum albumin [15] was found to be 3.36 nM; with cynomolgus serum albumin [16] it was 1.11 nM.

B8: BA11 C-terminal thiol derivative (VNAR)
VNAR: TRVDQSPSSLSASVGDRVTITCVLTDTSYPLYSTYWYRKNPGSSNKEQISISGRYSESVNKGTKSFTLTISSLQPEDSATYYCRAMSTNIWTGDGAGTKVEIK
modifications: C-terminal thiol from cysteamine cleavage of the intein fusion
notes: also called BA11-SH
Take B8: the Kd with cynomolgus serum albumin [15] was 3.41 nM; in the assay with cynomolgus serum albumin [16], 6.74 nM.

B9: BA11-oxime-fluorescein (VNAR)
VNAR: TRVDQSPSSLSASVGDRVTITCVLTDTSYPLYSTYWYRKNPGSSNKEQISISGRYSESVNKGTKSFTLTISSLQPEDSATYYCRAMSTNIWTGDGAGTKVEIK
modifications: C-terminal aminoxy joined by oxime to benzaldehyde-peg-fluorescein
In the case of B9, the results for the dissociation constant (Kd) in the assay with cynomolgus serum albumin [15] and with cynomolgus serum albumin [16] were 1.75 nM and 5.54 nM, respectively.

B10: BA11-cys-maleimide-peg-fluorescein (VNAR)
VNAR: TRVDQSPSSLSASVGDRVTITCVLTDTSYPLYSTYWYRKNPGSSNKEQISISGRYSESVNKGTKSFTLTISSLQPEDSATYYCRAMSTNIWTGDGAGTKVEIK
modifications: C-terminal cysteine joined to maleimide-peg-fluorescein
notes: also called BA11-cys-mal-Fl
Consider B10, for which the equilibrium dissociation constant (Kd) with cynomolgus serum albumin [15] was 3.68 nM; in the assay with cynomolgus serum albumin [16], 8.21 nM.

B11: BA11-S-maleimide-peg-fluorescein (VNAR)
VNAR: TRVDQSPSSLSASVGDRVTITCVLTDTSYPLYSTYWYRKNPGSSNKEQISISGRYSESVNKGTKSFTLTISSLQPEDSATYYCRAMSTNIWTGDGAGTKVEIK
modifications: C-terminal thiol joined to maleimide-peg-fluorescein
notes: also called BA11-S-mal-Fl
As for B11, the Kd with cynomolgus serum albumin [15] was determined as 2.3 nM; with cynomolgus serum albumin [16] it was 7.01 nM.
For the molecule YMESLHMQGEIENQI (synthetic linear peptide) [ROR1 ECD Peptide 1], the values for the binding result (with D3-[G4S]5-D3 homodimer [1]; with D3 VNAR [2]; in assay [3]) were “no binding”, “no binding” and “no binding (tested: 10 uM)”, respectively.

These data come from US20210317204A1 (ALMAC DISCOVERY, published 2021).
